Laboratory results as given in patent publication US20220306762A1 (CRYSTAL BIOSCIENCE, published 2022).

Tests used:
[1] = biological target: T1, murine CD38 on transiently transfected Expi293 cells (Origene MC208001) (murine, UniProt P56528 1-304); assay: flow cytometry, transfected Expi293 cells;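 further: antibody binding to Expi293 cells transiently expressing human or murine CD38, antibodies applied at 10 ug/ml for 60 min on ice, read by flow cytometry as percent gated cells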
T1 construct: whole, on cells; also called Murine (FACs)
T1 sequence (looked up): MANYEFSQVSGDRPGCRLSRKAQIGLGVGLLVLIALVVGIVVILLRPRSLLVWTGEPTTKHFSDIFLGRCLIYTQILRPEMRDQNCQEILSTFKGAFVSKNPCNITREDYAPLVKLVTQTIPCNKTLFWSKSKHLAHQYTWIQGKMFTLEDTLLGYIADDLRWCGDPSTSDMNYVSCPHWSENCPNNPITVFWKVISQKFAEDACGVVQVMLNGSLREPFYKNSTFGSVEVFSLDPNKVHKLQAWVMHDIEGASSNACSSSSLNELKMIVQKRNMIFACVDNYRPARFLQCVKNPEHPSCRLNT

[2] = biological target: T2, human CD38 on transiently transfected Expi293 cells (Origene #SC321273) (human, UniProt P28907 1-300); assay: flow cytometry, transfected Expi293 cells;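 further: antibody binding to Expi293 cells transiently expressing human or murine CD38, antibodies applied at 10 ug/ml for 60 min on ice, read by flow cytometry as percent gated cells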
T2 construct: whole, on cells; also called Human (FACs)

[3] = biological target: T3, His-tagged mouse CD38 (ACRO Biosystems #CD8-M5223) (mouse, UniProt P56528 45-304); assay: ELISA, coated His-CD38
T3 construct: bought recombinant protein with His tag; also called Murine
T3 sequence (looked up): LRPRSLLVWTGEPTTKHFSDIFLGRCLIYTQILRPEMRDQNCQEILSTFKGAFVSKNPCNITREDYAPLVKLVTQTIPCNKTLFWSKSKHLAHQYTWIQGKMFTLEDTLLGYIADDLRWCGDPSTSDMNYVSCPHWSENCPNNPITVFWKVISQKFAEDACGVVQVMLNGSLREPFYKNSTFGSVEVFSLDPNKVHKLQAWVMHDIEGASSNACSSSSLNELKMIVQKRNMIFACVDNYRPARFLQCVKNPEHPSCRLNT

[4] = biological target: T4, His-tagged human CD38 (ACRO Biosystems cat #CD8-H5224) (human, UniProt P28907 43-300); assay: ELISA, coated His-CD38
T4 construct: bought recombinant protein with His tag

[5] = biological target: T5, His-tagged cynomolgus monkey CD38 (ACRO Biosystems cat #CD8-05223) (cynomolgus monkey, UniProt Q5VAN0 43-301); assay: ELISA, coated His-CD38
T5 construct: bought recombinant protein with His tag

[6] = biological target: T4, His-tagged human CD38 (ACRO Biosystems …); assay: SPR, captured scFv-Fc, His-CD38 analyte;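 further: SPR on a Carterra LSA, scFv-Fc captured by anti-human Fc on HC30M chip, His-tagged CD38 (human, mouse, cynomolgus) flowed as analyte in eight 1:2 steps from 400 nM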
[7] = biological target: T5, His-tagged cynomolgus monkey CD38 (ACRO …); assay: SPR, captured scFv-Fc, His-CD38 analyte;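 further: SPR on a Carterra LSA, scFv-Fc captured by anti-human Fc on HC30M chip, His-tagged CD38 (human, mouse, cynomolgus) flowed as analyte in eight 1:2 steps from 400 nM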

B1: 40769p1.1.H3 (scFv, V domains shown)
VH: EVQLLESGGGLVQPGGSLRLSCAASGFAFNDYLMSWVRQAPGKGLEWVSTISWSGGSTYYADSVKGRFTISRDNSKNTLYLQMNSLRAEDTALYYCARDRYRYNYYYFMDVWGQGTTVTV
VL: QSVLTQPPSASGTPGQRVTISCSGSTSDSPYDRIDWYQQLPGTAPKLLIYKDDQRPSGVPDRFSGSKSGTSASLAISGLQSEDEADYYCATWDAMLSAWVFGGGTKLTVL
With B1 the “FACs 10 ug/ml (percent gated)” value [1] was 3.84%, the “FACs 10 ug/ml (percent gated)” value [2] was 82.5% and the “ELISA 1 ug/ml” value [3] was 0.049.

B2: 40769p1.2.E3 (scFv, V domains shown)
VH: EVQLLESGGDLVQPGGSLRLSCGASGFTFSDHYMSWVRQAPGKGLEWVADISARGSNTWYADSVKGRFTISRDNSENTLYLQMNSLRAEDTAVYYCAKNWNYNYGMDVWGQGTTVTVSS
VL: QSVLTQAPSASGTPGQRVTISCSGSSIQNNYVSWYQQLPGTAPKLLIYRNFERPSGVPDRFSASKSGTSASLAISGLQSEDEADYYCASWDDSLNWVFGGGTKLTVL
notes: tested as scFv-Fc supernatant
With B2 the “FACs 10 ug/ml (percent gated)” value [2] was 80.5%, the “ELISA 1 ug/ml” value [4] was 1.59 and the “ELISA 1 ug/ml” value [5] was 1.7. The Kd [6] was 2.24 nM and the Kd [7] was 2.11 nM.

B3: 40769p1.2.B4 (scFv, V domains shown)
VH: EVQLLESGGDLVQPGGSLRLSCGASGFTFSDHYMSWVRQAPGKGLEWVADISARGSNTWYADSVKGRFTISRDNSENTLYLQMNSLRAEDTAVYYCAKNWNYNYGMDVWGHGTTVTVSS
VL: QSVLTQAPSASGTPGQRVTISCSGSSIQNNYVSWYQQLPGTAPKLLIYRNFERPSGVPDRFSASKSGTSASLAISGLQSEDEADYYCASWDDSLNWVFGGGTKLTVL
notes: tested as scFv-Fc supernatant
With B3 the “FACs 10 ug/ml (percent gated)” value [2] was 81%, the “ELISA 1 ug/ml” value [4] was 1.55 and the “ELISA 1 ug/ml” value [5] was 1.73. The Kd [6] was 2.38 nM and the Kd [7] was 2.34 nM.

B4: 40769p1.2.F9 (scFv, V domains shown)
VH: EVQLLESGGDLVQPGGSLRLSCGASGFTFSDHYMSWVRQAPGKGLEWVADISARGSNTWYADSVKGRFTISRDNSENTLYLQMNSLRAEDTAVYYCAKNWNYNYGMDVWGQGTTVTVSS
VL: QSVLTQAPSASGTPGQRVTISCSGSSIQNNYVSWYQQLPGTAPKLLIYRNFERPSGVPDRFSASKSGTSASLAISGLQSGDEADYYCASWDDSLNWVFGGGTKLTVL
notes: tested as scFv-Fc supernatant
For B4, the “FACs 10 ug/ml (percent gated)” value [2] was 79.4%, the “ELISA 1 ug/ml” value [4] was 1.47 and the “ELISA 1 ug/ml” value [5] was 1.56. It also gave a Kd [6] of 17.1 nM.

B5: 40596p1.E4 (scFv, V domains shown)
VH: EVQLLESGGGLVQPGGSLRLSCAASGFDFSGSAMSWVRQAPGKGLEYVAGLGWSGSFIYYADSVKGRSTISRDNSKNTLYLQLNSLRAEDTAVYYCARNPGFGEMDVWGQGTTVTVSS
VL: EIVLTQSPGSLSLSPGERATLSCRASQTVGSNLAWYQQKPGQAPRLLIYGASTRATDIPDRFSGSGSGTEFTLTISSLQSEDFAVYYCQQYNSWPPLTFGGGTKVEIK
notes: tested as scFv-Fc supernatant
For B5, the “FACs 10 ug/ml (percent gated)” value [1] was 34%, the “FACs 10 ug/ml (percent gated)” value [2] was 64.2% and the “ELISA 1 ug/ml” value [4] was 1.93. The “ELISA 1 ug/ml” value [3] was 1.72, the “ELISA 1 ug/ml” value [5] was 1.77 and the Kd [6] was 56.9 nM. The Kd [7] was 17.8 nM.

B6: 40769p1.1.G5 (scFv, V domains shown)
VH: EVQLLESGGGFVQPGGSLRLSCAASGFNFNNAWMNWVRQAPGKGLEWVGIINGDGTNTYYADSVKGRFTISRDNSKNTLYLQMSSLRAEDTAIYYCARDNKLNDYYYAMDVWGQGTTVTV
VL: QSVLTQPSSASGTPGQRVTISCSGGSSNIHANYVYWYQQLPGTAPKLLIYRNSQRPSGVPDRFSGSKSGTSASLAISGLQSEDEADYYCGTWDNILNVWVFGGGTKLTVL
notes: tested as scFv-Fc supernatant
For B6, the “FACs 10 ug/ml (percent gated)” value [2] was 84.4%, the “ELISA 1 ug/ml” value [4] was 1.72 and the “ELISA 1 ug/ml” value [5] was 2.01. It also gave a Kd [6] of 3.11 nM and a Kd [7] of 11.5 nM.

B7: 40769p1.1.E2 (scFv, V domains shown)
VH: EVLLLESGGGLVQPGGSLRLSCAASGFTFSDYWMSWVRQAPGKGLEWVSTISISAGIIYYADSVKGRFTISRDNSKNTLYLQMNSLRAEDTAVYYCAKDNWNDYYGMDVWGQGTTVTVSS
VL: QSVLTQPPSASGTPGQRVTMSCSGNNQNIRDNYVYWYQQVPGTAPKLLIYKDDQRPSGVPDRFSGSKSGTSASLAISGLQSEDEADYYCATWDGSLKARVFGGGTKLTVL
notes: tested as scFv-Fc supernatant
For B7, the “FACs 10 ug/ml (percent gated)” value [2] was 82%, the “ELISA 1 ug/ml” value [4] was 1.65 and the “ELISA 1 ug/ml” value [5] was 1.98. The Kd [6] was 3.23 nM and the Kd [7] was 4.4 nM.

B8: 40769p1.1.G10 (scFv, V domains shown)
VH: EVQLLESGGGLVQPGGSLRLSCAASGFTFSDYWMNWVRQAPGKGLEWVSTISSGGSMIYHADSVKGRFTISRDNSKNTLYLQMNSLRPEDTAVYYCAKDNWNDYYGMDVWGQGTTVTVSS
VL: QSVLTQPPSASGTPGQRVNISCSGSSSNIRYNYVYWYQQVPGTAPKLLIYKDDQRPSGVPDRFSGSESGTSASLAISGLQSEDEADYYCATWDGSLNARVFGGGTKLTVL
notes: tested as scFv-Fc supernatant
For B8, the “FACs 10 ug/ml (percent gated)” value [2] was 77.5%, the “ELISA 1 ug/ml” value [4] was 1.75 and the “ELISA 1 ug/ml” value [5] was 2.11. For the same binder, the Kd [6] was 78.9 nM and the Kd [7] was 154 nM.

B9: 40769p1.1.A2 (scFv, V domains shown)
VH: EVQLLESGGGLVQPGGSLRLSCAASGFLFDDYGMSWVRQAPGKGLEWVSAISYKGGSTYYADSVKGRFTISRDNSKNTLYLQMSSLRAEDTAVYYCAKDHKWNYYGMDVWGQGTTVTVSS
VL: QSVLTQPPSASGTPGQRVTISCSGSTSNIGNDNYVSWYQQLPGTAPRLLIYKDDQRPSGVPDRFSGSKSGTSASLAISGLQSEDEADYYCGTWDDRLNAWVFGGGTKLTVL
notes: tested as scFv-Fc supernatant
For B9, the “FACs 10 ug/ml (percent gated)” value [1] was 2.65%, the “FACs 10 ug/ml (percent gated)” value [2] was 78.5% and the “ELISA 1 ug/ml” value [4] was 1.61. For the same binder, the “ELISA 1 ug/ml” value [3] was 0.049, the “ELISA 1 ug/ml” value [5] was 1.73 and the Kd [6] was 0.319 nM. The Kd [7] was 0.35 nM.

B10: 40769p1.1.B8 (scFv, V domains shown)
VH: EVQLLESGGGLVQPGGSLRLSCAASGFTFEDYAMSWVRQAPGKGLEWVSVISSKGGSTSNADSVKGRFTISRDNSKNTLYLQMNSLRAEDTAVYYCAKGMERQYYSYNAMDVWGQGTTVTVSS
VL: QSVLTQPPSASGTPGQRVTISCSGSNSNIDVDYVYWYQQLPGTAPRLLIYKDDQRPSGVPDRFSGSKSGTSASLAISGLQSEDEADYYCATWDDNLNSWLFGGGTKLTVL
notes: tested as scFv-Fc supernatant
For B10, the “FACs 10 ug/ml (percent gated)” value [1] was 0.04%, the “FACs 10 ug/ml (percent gated)” value [2] was 81.4% and the “ELISA 1 ug/ml” value [4] was 1.64. For the same binder, the “ELISA 1 ug/ml” value [3] was 0.048, the “ELISA 1 ug/ml” value [5] was 1.75 and the Kd [6] was 0.101 nM. It also gave a Kd [7] of 1.62 nM.

B11: 40769p1.1.B12 (scFv, V domains shown)
VH: EVQLLESGGGLIQPGGSLRLSCTASGFDFSSYGMHWVRQAPGKGLEWVGIISDSGGTTYYADSVKGRFTISRDNSKNTMYLQMNSLRAEDTALYYCASYIMDVWGQGITVTVSS
VL: QSVLTQPPSASGTPGQRVTISCSGSSSNVGGNSVYWYQQLPGTAPKLLFYGNHRRPSGVPDRFSGSKSGTSASLAISGLQSEDEADYYCAVWDDSLNAWVFGGGTKLTVL
notes: tested as scFv-Fc supernatant
B11 was tested, and the “FACs 10 ug/ml (percent gated)” value [1] was 31.9%, the “FACs 10 ug/ml (percent gated)” value [2] was 71.1% and the “ELISA 1 ug/ml” value [4] was 1.56. For the same binder, the “ELISA 1 ug/ml” value [3] was 0.472, the “ELISA 1 ug/ml” value [5] was 1.91 and the Kd [6] was 32.4 nM. It also gave a Kd [7] of 135 nM.

B12: 40769p1.1.B10 (scFv, V domains shown)
VH: EVQLLESGGGLVQPGGSLRLSCTASGITFSRFNMFWVRQAPGKGLEFVASIRDDGSWTYYADSVKGRFTISRDNSKNTLYLQMNSLRAEDTAVYYCAKDYNSKDFIYHYVMDVWGQGTTVTVSS
VL: QSVLTQPPSASGTPGQRVTISCSGRNSNIGNNVVNWYQQLPGTAPKLLIYRNQERPSGVPDRFSGSKSGTSASLAISGLQSEDEADYYCSTWDDSLNGWVFGGGTKLTVL
notes: tested as scFv-Fc supernatant
For B12, the “FACs 10 ug/ml (percent gated)” value [1] was 0.38%, the “FACs 10 ug/ml (percent gated)” value [2] was 76.4% and the “ELISA 1 ug/ml” value [4] was 1.5. The “ELISA 1 ug/ml” value [3] was 0.049, the “ELISA 1 ug/ml” value [5] was 2.05 and the Kd [6] was 8.02 nM. It also gave a Kd [7] of 96400 nM.
